Consider two molecules from patent EP1758924B1 (Council of Scientific and Industrial Research, dated 2005).

In assay [1] the target is T1, bovine serum albumin (BSA) (bovine, UniProt P02769 25-607).
T1 construct: Negative control target in the reverse phage ELISA
Nature of the assay: reverse phage ELISA, A405.

Assay [2] deals with T2, Hsp16.3 (16 kDa alpha-crystallin like heat-shock protein of Mycobacterium tuberculosis), recombinant, 6 X His … (Mycobacterium tuberculosis).
T2 construct: also called M. tuberculosis Acr (Hsp16.3) protein
Nature of the assay: reverse phage ELISA on coated Hsp16.3, anti-M13-HRP, A405.

T1 sequence (P02769 25-607 limits assumed): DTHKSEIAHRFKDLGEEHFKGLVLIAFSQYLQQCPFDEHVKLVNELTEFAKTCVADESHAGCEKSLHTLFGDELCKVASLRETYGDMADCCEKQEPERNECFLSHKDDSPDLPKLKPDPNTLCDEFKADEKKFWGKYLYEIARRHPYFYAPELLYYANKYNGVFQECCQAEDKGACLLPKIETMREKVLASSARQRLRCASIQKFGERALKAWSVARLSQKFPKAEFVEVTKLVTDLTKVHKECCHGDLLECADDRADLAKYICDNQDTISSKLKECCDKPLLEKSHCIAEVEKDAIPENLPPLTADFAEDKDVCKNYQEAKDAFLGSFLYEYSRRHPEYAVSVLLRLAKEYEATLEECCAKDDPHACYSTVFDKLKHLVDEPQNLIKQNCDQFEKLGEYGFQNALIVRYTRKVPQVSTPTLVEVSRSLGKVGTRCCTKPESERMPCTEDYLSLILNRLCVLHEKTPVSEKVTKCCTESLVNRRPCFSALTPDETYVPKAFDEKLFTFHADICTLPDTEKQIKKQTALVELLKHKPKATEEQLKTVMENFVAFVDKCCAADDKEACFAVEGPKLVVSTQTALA

B1: phage clone displaying peptide sequence Seq ID 21 (Tyr-Pro-His-His-Phe-Lys-His-Arg-His-Ile-Pro-Ile), from the Ph.D.-12 library on bacteriophage M13 (peptide)
peptide: YPHHFKHRHIPI
notes: Tested as whole phage in the reverse phage ELISA; not shown: fused to an M13 coat protein (spacer Gly-Gly-Gly-Ser is named)
For the molecule B1, the binding result in assay [1] was “no binding”.

B2: phage clone displaying peptide sequence Seq ID 9 (Lys-Met-His-Ala-Thr-Asn-His), from the Ph.D.-7 library on bacteriophage M13 (peptide)
peptide: KMHATNH
notes: as for B1
With B2, the “fold binding over BSA background” value in assay [2] is around 3 fold. For the same molecule, in assay [1], the binding result is “no binding”.
